In patent publication US20100047163A1 (LAWRENCE BERKELEY NATIONAL LABORATORY, published 2010):
Several values for one entry are separate records, joined by “and”; a condition that tells them apart may be missing. Equal values may be shown once.

B1: LDL receptor (LDLR) on human glioblastoma multiforme cells (receptor)
chain: not shown
notes: whole, on cells; also called cell surface LDLR

What was measured:
[1] = molecular target: B1; assay: cell-based or functional assay
[2] = molecular target: T1, native plasma LDL (low density lipoprotein; LDLR ligand apoB100 on its surface) (human, UniProt P04114 28-4563); assay: ^125I-LDL saturation binding to U-251 MG cells (average of 2 experiments)
T1 construct: Lipoprotein particle isolated from plasma; also called native LDL
T1 sequence (P04114 28-4563 limits assumed): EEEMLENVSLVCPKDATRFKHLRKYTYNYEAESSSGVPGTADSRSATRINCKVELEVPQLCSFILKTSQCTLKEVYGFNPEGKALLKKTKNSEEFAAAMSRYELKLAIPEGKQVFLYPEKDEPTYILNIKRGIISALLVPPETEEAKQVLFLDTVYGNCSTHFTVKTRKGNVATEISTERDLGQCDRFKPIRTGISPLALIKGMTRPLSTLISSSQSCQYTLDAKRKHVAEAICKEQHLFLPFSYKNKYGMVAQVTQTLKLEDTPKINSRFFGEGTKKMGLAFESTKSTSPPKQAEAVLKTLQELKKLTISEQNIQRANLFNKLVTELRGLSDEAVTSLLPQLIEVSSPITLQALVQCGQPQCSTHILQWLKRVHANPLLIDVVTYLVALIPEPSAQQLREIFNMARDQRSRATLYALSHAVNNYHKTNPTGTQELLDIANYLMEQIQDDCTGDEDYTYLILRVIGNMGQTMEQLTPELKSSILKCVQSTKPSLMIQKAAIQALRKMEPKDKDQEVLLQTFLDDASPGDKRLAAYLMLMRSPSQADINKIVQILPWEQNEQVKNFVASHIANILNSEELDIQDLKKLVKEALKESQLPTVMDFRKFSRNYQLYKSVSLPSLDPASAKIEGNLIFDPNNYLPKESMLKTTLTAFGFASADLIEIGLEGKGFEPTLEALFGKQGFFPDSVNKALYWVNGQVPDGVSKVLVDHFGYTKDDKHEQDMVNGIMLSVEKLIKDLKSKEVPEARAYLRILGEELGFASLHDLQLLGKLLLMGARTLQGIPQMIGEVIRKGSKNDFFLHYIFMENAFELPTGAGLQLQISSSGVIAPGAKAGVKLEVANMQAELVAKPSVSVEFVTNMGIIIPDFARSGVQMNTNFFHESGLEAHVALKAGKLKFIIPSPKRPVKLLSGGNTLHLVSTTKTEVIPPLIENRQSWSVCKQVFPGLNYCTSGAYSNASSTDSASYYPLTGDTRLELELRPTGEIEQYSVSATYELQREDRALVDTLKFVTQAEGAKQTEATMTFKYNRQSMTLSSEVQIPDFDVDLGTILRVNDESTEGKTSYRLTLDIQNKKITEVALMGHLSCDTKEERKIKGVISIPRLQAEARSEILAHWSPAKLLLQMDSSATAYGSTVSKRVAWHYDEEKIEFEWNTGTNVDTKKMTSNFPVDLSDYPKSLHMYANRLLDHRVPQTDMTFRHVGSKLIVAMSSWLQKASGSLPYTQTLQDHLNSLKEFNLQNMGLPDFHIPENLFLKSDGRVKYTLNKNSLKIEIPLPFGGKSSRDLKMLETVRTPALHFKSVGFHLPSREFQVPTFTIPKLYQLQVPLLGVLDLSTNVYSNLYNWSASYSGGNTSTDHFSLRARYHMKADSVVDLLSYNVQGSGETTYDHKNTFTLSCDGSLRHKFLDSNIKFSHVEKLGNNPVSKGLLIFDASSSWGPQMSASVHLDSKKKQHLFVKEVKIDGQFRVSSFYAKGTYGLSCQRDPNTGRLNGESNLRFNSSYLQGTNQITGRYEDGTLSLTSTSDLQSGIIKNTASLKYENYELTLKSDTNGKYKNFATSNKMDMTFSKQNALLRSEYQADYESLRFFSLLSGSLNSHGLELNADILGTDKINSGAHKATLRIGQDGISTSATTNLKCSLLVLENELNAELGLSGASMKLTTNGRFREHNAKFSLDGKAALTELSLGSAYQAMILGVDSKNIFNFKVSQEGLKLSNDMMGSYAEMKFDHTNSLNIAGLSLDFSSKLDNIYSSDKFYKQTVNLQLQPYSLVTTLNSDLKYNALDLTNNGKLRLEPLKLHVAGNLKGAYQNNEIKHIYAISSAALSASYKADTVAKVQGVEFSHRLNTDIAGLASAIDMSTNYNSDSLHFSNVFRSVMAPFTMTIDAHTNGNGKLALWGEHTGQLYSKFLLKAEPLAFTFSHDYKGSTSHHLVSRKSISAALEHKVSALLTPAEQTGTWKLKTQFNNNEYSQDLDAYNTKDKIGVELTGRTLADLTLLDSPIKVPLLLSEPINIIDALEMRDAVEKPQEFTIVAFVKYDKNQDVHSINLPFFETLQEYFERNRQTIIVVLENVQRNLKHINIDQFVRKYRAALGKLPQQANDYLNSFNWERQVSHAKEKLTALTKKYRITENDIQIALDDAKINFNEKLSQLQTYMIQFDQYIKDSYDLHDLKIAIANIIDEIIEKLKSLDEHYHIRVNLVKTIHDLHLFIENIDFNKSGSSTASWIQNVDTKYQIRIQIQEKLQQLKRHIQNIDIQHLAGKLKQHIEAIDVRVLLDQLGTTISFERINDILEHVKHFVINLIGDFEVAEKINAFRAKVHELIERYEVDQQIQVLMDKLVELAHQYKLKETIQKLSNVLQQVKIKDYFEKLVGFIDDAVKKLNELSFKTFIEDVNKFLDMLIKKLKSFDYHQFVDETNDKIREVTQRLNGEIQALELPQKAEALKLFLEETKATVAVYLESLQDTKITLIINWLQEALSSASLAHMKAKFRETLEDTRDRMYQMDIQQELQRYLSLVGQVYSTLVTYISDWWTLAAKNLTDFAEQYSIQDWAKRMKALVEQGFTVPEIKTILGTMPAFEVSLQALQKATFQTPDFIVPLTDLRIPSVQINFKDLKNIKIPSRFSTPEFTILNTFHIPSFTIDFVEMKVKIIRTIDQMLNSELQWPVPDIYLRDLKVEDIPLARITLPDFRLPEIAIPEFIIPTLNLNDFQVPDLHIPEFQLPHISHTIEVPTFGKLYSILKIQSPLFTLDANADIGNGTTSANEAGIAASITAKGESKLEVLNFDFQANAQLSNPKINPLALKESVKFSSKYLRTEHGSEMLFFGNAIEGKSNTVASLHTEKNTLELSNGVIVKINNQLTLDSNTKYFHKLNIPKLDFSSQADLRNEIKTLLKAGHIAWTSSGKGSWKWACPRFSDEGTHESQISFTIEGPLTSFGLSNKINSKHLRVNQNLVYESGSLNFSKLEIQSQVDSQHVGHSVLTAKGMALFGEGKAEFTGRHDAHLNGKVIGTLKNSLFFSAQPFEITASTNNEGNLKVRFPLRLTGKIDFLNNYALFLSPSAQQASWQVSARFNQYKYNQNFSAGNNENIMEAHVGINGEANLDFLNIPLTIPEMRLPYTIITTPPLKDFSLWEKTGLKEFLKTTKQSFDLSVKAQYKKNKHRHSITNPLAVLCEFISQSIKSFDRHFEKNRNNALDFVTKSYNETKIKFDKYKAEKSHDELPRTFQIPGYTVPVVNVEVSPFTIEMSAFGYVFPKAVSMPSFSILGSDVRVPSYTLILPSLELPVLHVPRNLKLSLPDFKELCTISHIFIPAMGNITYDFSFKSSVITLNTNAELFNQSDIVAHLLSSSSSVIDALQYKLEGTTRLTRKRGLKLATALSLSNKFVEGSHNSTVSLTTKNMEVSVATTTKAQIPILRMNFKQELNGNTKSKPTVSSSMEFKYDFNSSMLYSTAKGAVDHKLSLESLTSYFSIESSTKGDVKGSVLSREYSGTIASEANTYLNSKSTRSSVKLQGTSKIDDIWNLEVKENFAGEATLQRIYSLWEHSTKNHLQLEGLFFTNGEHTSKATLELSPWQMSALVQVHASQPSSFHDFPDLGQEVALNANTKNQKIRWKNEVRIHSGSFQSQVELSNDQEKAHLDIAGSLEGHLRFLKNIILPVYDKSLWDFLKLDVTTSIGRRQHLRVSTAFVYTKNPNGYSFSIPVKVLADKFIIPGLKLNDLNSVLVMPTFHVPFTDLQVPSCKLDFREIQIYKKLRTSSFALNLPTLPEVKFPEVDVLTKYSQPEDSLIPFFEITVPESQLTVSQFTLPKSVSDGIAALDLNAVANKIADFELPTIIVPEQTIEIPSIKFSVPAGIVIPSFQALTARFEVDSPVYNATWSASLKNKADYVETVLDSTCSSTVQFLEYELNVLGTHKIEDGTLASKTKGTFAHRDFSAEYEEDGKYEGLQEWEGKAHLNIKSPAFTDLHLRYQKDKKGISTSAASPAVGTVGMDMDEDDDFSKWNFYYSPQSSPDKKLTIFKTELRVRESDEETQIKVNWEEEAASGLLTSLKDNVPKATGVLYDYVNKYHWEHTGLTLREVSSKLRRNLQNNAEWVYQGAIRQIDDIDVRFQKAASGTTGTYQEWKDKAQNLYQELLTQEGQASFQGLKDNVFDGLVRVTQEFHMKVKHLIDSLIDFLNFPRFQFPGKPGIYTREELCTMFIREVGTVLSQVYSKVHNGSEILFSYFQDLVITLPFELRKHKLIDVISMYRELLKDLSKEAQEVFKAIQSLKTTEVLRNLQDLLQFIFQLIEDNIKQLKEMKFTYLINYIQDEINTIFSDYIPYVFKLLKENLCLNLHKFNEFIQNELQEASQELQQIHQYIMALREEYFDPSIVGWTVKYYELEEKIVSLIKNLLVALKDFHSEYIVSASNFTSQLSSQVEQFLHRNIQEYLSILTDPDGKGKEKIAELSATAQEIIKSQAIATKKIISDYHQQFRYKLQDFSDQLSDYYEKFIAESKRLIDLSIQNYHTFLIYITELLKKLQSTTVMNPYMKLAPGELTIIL

[3] = molecular target: T1, native plasma LDL (low density …); assay: ^125I-LDL saturation binding to SF-763 cells
[4] = molecular target: T1, native plasma LDL (low density …); assay: ^125I-LDL saturation binding to U-343 MG cells
[5] = molecular target: T1, native plasma LDL (low density …); assay: ^125I-LDL saturation binding to A-172 cells
[6] = molecular target: T1, native plasma LDL (low density …); assay: ^125I-LDL saturation binding to SF-539 cells
[7] = molecular target: T1, native plasma LDL (low density …); assay: ^125I-LDL saturation binding to SF-767 cells

Ac-DWLKAFYDKVAEKLKEAFRLTRKRGLKLA-NH2 (also: sLDL particle with paclitaxel oleate in lipid core, not covalently bound) [synthetic LDL containing paclitaxel oleate (sLDL-PO)]
IC50 of SF-763 cell killing, 6 hrs incubation with sLDL-PO, 72 hr total [1]: 2 µM | IC50 of SF-767 cell killing, 1 hr incubation with sLDL-PO, 72 hr total [1]: 20 µM | IC50 of SF-767 cell killing, 3 hr incubation with sLDL-PO, 72 hr total [1]: 15 µM | IC50 of SF-767 cell killing, 6 hr incubation with sLDL-PO, 72 hr total [1]: 10 µM | IC50 of SF-767 cell killing, 6 hrs incubation with sLDL-PO, 72 hr total [1]: 7 µM | IC50 of SF-767 cell killing, 12 hr incubation with sLDL-PO, 72 hr total [1]: 10 µM | IC50 of U-251 cell killing, 6 hrs incubation with sLDL-PO, 72 hr total [1]: 7 µM

B1
Kd [2]: 38 µg/mL and 76 nM | Kd [3]: 60 µg/mL and 120 nM | Kd [4]: 40 µg/mL and 80 nM | Kd [5]: 62 µg/mL and 124 nM | Kd [6]: 50 µg/mL and 100 nM | Kd [7]: 3.5 µg/mL and 6.98 nM
